The target of experiment [1] is Dupixent (IgG4 monoclonal antibody). The experiment is described as follows: BLI, biotinylated ligand on sensor; 'Binding affinity (nM)'. A general note: Biolayer interferometry detects binding as a change in optical thickness at a sensor tip.
Experiment [2] addresses Praluent (IgG1 monoclonal antibody). The experiment is described as above.

B1: affinity ligand SEQ ID NO: 163 (designed binder)
chain: MGHHHHHHDEAERWYDLGAAYAARGDYDRAIEYYQRALELDPNDAWAWWELGVAYAARGDYDRAIEYYQRALELDLNNAVAWARLGIAYAARGDYDRAIEYYQRALELDPNNEVARDALEYARRARRAPKC
modifications: biotinylated (AviTag system)
For the molecule B1, the Kd in experiment [1] was 13 nM; in experiment [2], < 1 nM.

B2: affinity ligand SEQ ID NO: 164 (designed binder)
chain: MGDEAERWYDLGAAYAARGDYDRAIEYYQRALELDPNDAWAWWELGVAYAARGDYDRAIEYYQRALELDLNNAVAWARLGIAYAARGDYDRAIEYYQRALELDPNNEVARDALEYARRARRC
modifications: biotinylated (AviTag system)
With B2, the values for the Kd in experiment [1] and in experiment [2] were 82 nM and < 1 nM, respectively.

B3: affinity ligand SEQ ID NO: 165 (designed binder)
chain: MDEAAHWEVQGAAYAARGDYDRAIEYYERALELDPNNAWAWEHLGWAYAARGDFDRAIEYYERALELDPDDAHAWFRLGFAYAARGDYDRAIEYYERALELDPEDELARAELESARRARQGQAGQGWAEFRQRLAAIRTRLEALGGSEAELAAFEREIAAFESELQAYAGAGNPEVEALRREAAAIRDELQAYRHNHHHHHHC
modifications: biotinylated (AviTag system)
On to B3, for which the results for the Kd in experiment [1] and in experiment [2] were 31 nM and < 1 nM, respectively.

B4: affinity ligand SEQ ID NO: 167 (designed binder)
chain: MDEAARWEVQGAAYAARGDYDRAIEYYERALELDPNNAWAWEHLGWAYAARGDYDRAIEYYERALELDPDDAHSWFRLGFAYAVRGDYDRAIEYYERALELDPEDELARAELESARRARQGQAGQGWAEFRQRLAAIRTRLEALGGSEAELAAFEREIAAFESELQAYAGAGNPEVEALRREAAAIRDELQAYRHNHHHHHHC
modifications: biotinylated (AviTag system)
As to B4, the Kd was 31 nM in experiment [1] and < 1 nM in experiment [2].

B5: affinity ligand SEQ ID NO: 166 (designed binder)
chain: MDEAARWEVQGAAYAARGDYDRAIEYYERVLELDPNDAWAWEHLGWAYAARGDYDRAIEYYERALEVDPDDAHAWFRLGFAYAARGDYDRAMEYYERALELDPEDELARAELESARRARQGQAGQGWAEFRQRLAAIRTRLEALGGSEAELAAFEREIAAFESELQAYAGAGNPEVEALRREAAAIRDELQAYRHNHHHHHHC
modifications: biotinylated (AviTag system)
B5: the figures for the Kd in experiment [1] and in experiment [2] were 120 nM and < 1 nM, respectively.

B6: affinity ligand SEQ ID NO: 168 (designed binder)
chain: MDEVARWEVQGAAYAARGGYDRAIEYYERALELDPNNAWAWEHLGWAYAARGDYDRAIEYYERALELDPDDAHEWFRLGFAYAARGDYDRAIEYYERALELDPEDELARAELESARRARQGQAGQGWAEFRQRLAAIRTRLEALGGSEAELAAFEREIAAFESELQAYAGAGNPEVEALRREAAAIRDELQAYRHNHHHHHHC
modifications: biotinylated (AviTag system)
For the molecule B6, the values for the Kd in experiment [1] and in experiment [2] were 232 nM and < 1 nM, respectively.

B7: affinity ligand SEQ ID NO: 170 (designed binder)
chain: MGDEADRWYDQGAAYAARGDYDRAIEYYERALELDPNDAWAWWELGVAYAARGDYDRAIEYYQRALELDPNDAVAWARLGHAYAARGDYDRAIEYYQRALELDPNNEAARSNLEYARRAAACGLNDIFEAQKIEWHEHHHHHH
modifications: biotinylated (AviTag system)
Turning to B7, the Kd in experiment [1] is 28 nM; in experiment [2] it was < 1 nM.

B8: affinity ligand SEQ ID NO: 172 (designed binder)
chain: MGDEADRWYDQGAAYAARGDYDRAIEYYQRALELDPNNAWAWWELGVAYAARGDYDRAIEYYQRALELDPNDAVAWSRLGHAYAARGDYDRAIEHYQRALELDPNNEVARHLLEVARRAAACGLNDIFEAQKIEWHEHHHHHH
modifications: biotinylated (AviTag system)
For the molecule B8, the Kd in experiment [1] is 215 nM; in experiment [2], < 1 nM.

B9: affinity ligand SEQ ID NO: 173 (designed binder)
chain: MGDEADRWYDQGAAYAARGDYDRAIEYYQRALELDPNNAWAWWELGVAYAARGDYDRAIEYYQRALELDPNDAVAWSRLGHAYAARGDYDRAIEYYQRALELDPNNEVARHLLEVARRAAACGLNDIFEAQKIEWHEHHHHHH
modifications: biotinylated (AviTag system)
Take B9: the Kd in experiment [1] is 95 nM; in experiment [2], < 1 nM.

B10: affinity ligand SEQ ID NO: 171 (designed binder)
chain: MGDEADRWYYQGAAYAARGDYDRAIEYYERALELDPNNAWAWWELGVAYAARGDYDRAIEYYQRALELDPNDAVAWARLGHAYAARGDYDRAIEYYQRALELDPNNEAARSNLEYARRAAACGLNDIFEAQKIEWHEHHHHHH
modifications: biotinylated (AviTag system)
Consider B10, for which the Kd in experiment [1] is 242 nM; in experiment [2] it was < 1 nM.

A word on the Kd: it is the free concentration of one partner at which half of the binding sites on the other are occupied at equilibrium, for simple one-to-one binding. Read a high Kd as a looser complex.

Source of the values: patent US20250059258A1.
